For 3 substances, stoichiometry N and Km, Michaelis-Menten kinetics of H3K9 methylation (MTase-Glo, SAH production) results are on record in PMC12124358.

What is called stoichiometry N is a count of units in the complex or per binding partner.

For experiment [1], the target named is H3 (3–19)_([change]-[change]) (UniProt P68431). As to the kind of experiment: crystal structure.
Experiment [2] has as its target H3 (3–19)_([change]-[change])-Ub_([change]) (UniProt P68431). As to the kind of experiment: crystal structure.
Experiment [3] deals with unmodified histone H3 N-terminal tail (residues 1 to 20) (UniProt P68431).

Chain of Clr4 lysine methyltransferase (KMT) domain (residues 192 to 490) (O60016 192-490): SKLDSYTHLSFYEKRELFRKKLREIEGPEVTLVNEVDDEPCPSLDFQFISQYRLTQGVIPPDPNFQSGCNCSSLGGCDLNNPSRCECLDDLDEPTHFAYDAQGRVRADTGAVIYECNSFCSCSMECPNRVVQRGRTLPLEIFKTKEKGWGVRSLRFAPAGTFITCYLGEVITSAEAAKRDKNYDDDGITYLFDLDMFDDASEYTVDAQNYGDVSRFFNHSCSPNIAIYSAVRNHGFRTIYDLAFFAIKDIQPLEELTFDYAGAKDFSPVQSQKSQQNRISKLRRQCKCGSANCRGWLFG
Chain of full-length Clr4 (residues 1 to 490) (O60016 whole entry, the tested form may be a part): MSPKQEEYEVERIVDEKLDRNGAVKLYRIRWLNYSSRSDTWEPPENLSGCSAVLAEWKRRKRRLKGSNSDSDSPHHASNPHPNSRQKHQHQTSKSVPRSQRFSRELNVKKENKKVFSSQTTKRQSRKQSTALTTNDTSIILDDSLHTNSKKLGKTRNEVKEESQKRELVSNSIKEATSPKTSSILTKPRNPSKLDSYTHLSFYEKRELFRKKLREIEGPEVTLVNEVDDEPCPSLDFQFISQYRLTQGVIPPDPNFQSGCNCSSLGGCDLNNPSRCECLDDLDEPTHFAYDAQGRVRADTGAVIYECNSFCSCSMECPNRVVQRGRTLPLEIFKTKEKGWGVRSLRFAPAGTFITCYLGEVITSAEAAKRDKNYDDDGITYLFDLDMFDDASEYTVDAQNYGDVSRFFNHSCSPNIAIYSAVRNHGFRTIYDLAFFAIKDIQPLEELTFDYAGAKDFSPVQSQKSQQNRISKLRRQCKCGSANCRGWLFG

Take “Clr4 lysine methyltransferase (KMT) domain (residues 192 to 490) (from UniProt O60016 192-490) (domain or fragment)”: the stoichiometry N in experiment [1] and in experiment [2] was 1 throughout.

Take “full-length Clr4 (residues 1 to 490) (from UniProt O60016 1-490) (enzyme)”: the Km, Michaelis-Menten kinetics of H3K9 methylation (MTase-Glo, SAH production) in experiment [3] was 75.8 µM.

Turning to “full-length Clr4 K455A/K472A (automethylation-mimicking) (from UniProt O60016 1-490) (enzyme)”, the Km, Michaelis-Menten kinetics of H3K9 methylation (MTase-Glo, SAH production) in experiment [3] came out at 26.5 µM.
